The Human Domainome abundance scans (Beltran et al. 2025)

B1: Mineralocorticoid receptor, residues 600 to 675; numbered along this chain, P08235 (parent)
chain: SKICLVCGDEASGCHYGVVTCGSCKVFFKRAVEGQHNYLCAGRNDCIIDKIRRKNCPACRLQKCLQAGMNLGARKS

Variants of: B1
Assay: abundance fitness (aPCA) (normalised: wild type 0, dead -1); higher = more abundant; growth selection in yeast, the domain comes from the species named
Conditions: Homo sapiens

Abundance fitness, by site and new letter:
H15: A -0.062; P -0.066; D -0.119; E -0.033; R -0.136; I -0.131; Y -0.057; S -0.075; L -0.096; V -0.103; W 0.029; T -0.11; M -0.059; F 0.023; K 0.032; N -0.092; C -0.152; Q -0.12
E10: N -0.04; Y -0.105; H 0.078; A -0.063; G 0.043; S -0.03; L -0.028; T -0.032; K 0.016; D -0.018; M -0.177; R -0.1; C -0.221; Q 0.071; I -0.188; P -0.108; W -0.012; V -0.04
S23: G 0.009; A -0.125; I -0.42; E 0.003; F -0.168; L -0.104; H -0.143; K -0.007; M -0.085; D 0.01; C -0.253
C21: W -1.22; G -1.03; R -0.962; M -0.969; T -1.22; A -0.977; I -0.803; E -0.854; V -1.11; P -1.05; Q -0.567; F -0.515; Y -0.731; K -1.25
G17: R -0.046; C -0.049; A -0.108; D -0.031; P -0.175; S -0.044; F -0.121; I -0.24; K -0.054; N -0.126; T -0.073; M -0.055; E -0.007; H -0.208; Q -0.065; L -0.142; V -0.228; W -0.169
S12: K -0.124; E 0.103; L 0.068; R 0.004; I 0.043; V -0.106; H -0.117; D -0.238; F -0.173; G -0.181; N 0.205; C -0.142; M 0.071; Y 0.096; W -0.191; P -0.008; Q -0.019; A -0.132
D9: T -0.082; N -0.144; Y -0.161; F -0.202; G -0.053; E -0.096; K -0.231; C -0.137; L -0.309; V -0.001; I -0.168; R -0.183; W -0.214; A 0.048; Q -0.092; H -0.04; S -0.102
V6: G -0.726; Y -0.489; T -0.148; M -0.416; K -0.83; Q -0.803; C -0.228; N -0.706; R -0.971; D -0.765; S -0.512; A -0.051; L -0.375; P -0.704; I 0.008
G8: E -0.075; K -0.019; Y -0.248; D -0.085; S -0.057; H -0.273; I -0.605; R -0.043; M -0.062; C -0.233; L -0.08; F -0.202; N -0.235; W -0.27; A 0.058; Q -0.095; V -0.621; T -0.079
L5: Q 0.05; K 0.057; D -0.168; T -0.037; M -0.133; Y -0.076; H -0.239; A -0.05; N -0.068; R -0.091; E -0.071; V -0.209; C -0.069; W -0.106; P -0.075; S -0.075; I -0.089; F -0.027
T20: P -0.691; L -0.17
